Source: patent US20210388110A1 (published 2021)
Substitutions are numbered along the chain they refer to.

B1: H0610-G1dh/none-Hi-Kn010G3/L0208-k0 (antibody, human IgG1, kappa)
heavy: not shown
chain: EPKSSDKTHTCPPCPAPELLGGPSVFLFPPKPKDTLMISRTPEVTCVVVDVSHEDPEVKFNWYVDGVEVHNAKTKPREEQYNSTYRVVSVLTVLHQDWLNGKEYKCKVSNKALPAPIEKTISKAKGQPREPQVCTLPPSRDELTKNQVSLWCLVKGFYPSDIAVEWESNGQPENNYKTTPPVLDSDGSFFLYSKLTVDKSRWQQGNVFSCSVMHEALHNRYTQKSLSLSP
light: DIVMTQSPLSLPVTPGEPASISCRSSQSPVHSNRNTYLHWYQQKPGQAPRLLIYKVSNRFWGVPDRFSGSGSGTDFTLKISRVEAEDVGVYYCYQGTQVPYTFGQGTKLEIKRTVAAPSVFIFPPSDEQLKSGTASVVCLLNNFYPREAKVQWKVDNALQSGNSQESVTEQDSKDSTYSLSSTLTLSKADYEKHKVYACEVTHQGLSSPVTKSFNRGEC
notes: single-arm (one Fab)
B2: H0610-G1dh/none-Hi-Kn010G3/L0209-k0 (antibody, human IgG1, kappa)
heavy: not shown
chain: B1 chain
light: B1 light with L38I, W61S
notes: single-arm (one Fab)
B3: H0610-G1dh/none-Hi-Kn010G3/L0211-k0 (antibody, human IgG1, kappa)
heavy: not shown
chain: B1 chain
light: B1 light with S28P, W61S
notes: single-arm (one Fab)
B4: H0610-G1dh/none-Hi-Kn010G3/L0212-k0 (antibody, human IgG1, kappa)
heavy: not shown
chain: B1 chain
light: B1 light with S25P, W61S
notes: single-arm (one Fab)
B5: H0610-G1dh/none-Hi-Kn010G3/L0213-k0 (antibody, human IgG1, kappa)
heavy: not shown
chain: B1 chain
light: B1 light with L38I, W61R, Y94G
notes: single-arm (one Fab)
B6: H0610-G1dh/none-Hi-Kn010G3/L0214-k0 (antibody, human IgG1, kappa)
heavy: not shown
chain: B1 chain
light: B1 light with S28P, W61R, Y94G
notes: single-arm (one Fab)
B7: H0610-G1dh/none-Hi-Kn010G3/L0215-k0 (antibody, human IgG1, kappa)
heavy: not shown
chain: B1 chain
light: B1 light with S28P, L38I, W61S, Y94G
notes: single-arm (one Fab)
B8: H0610-G1dh/none-Hi-Kn010G3/L0216-k0 (antibody, human IgG1, kappa)
heavy: not shown
chain: B1 chain
light: B1 light with S28P, P29L, W61R, Y94G
notes: single-arm (one Fab)
B9: H0610-G1dh/none-Hi-Kn010G3/L0217-k0 (antibody, human IgG1, kappa)
heavy: not shown
chain: B1 chain
light: B1 light with S25P, P29L, W61R, Y94G
notes: single-arm (one Fab)
B10: H0610-G1dh/none-Hi-Kn010G3/L0218-k0 (antibody, human IgG1, kappa)
heavy: not shown
chain: B1 chain
light: B1 light with P29L, W61R
notes: single-arm (one Fab)
B11: H0610-G1dh/none-Hi-Kn010G3/L0219-k0 (antibody, human IgG1, kappa)
heavy: not shown
chain: B1 chain
light: B1 light with P29L, L38I, W61R, Y94G
notes: single-arm (one Fab)
B12: H0610-G1dh/none-Hi-Kn010G3/L0220-k0 (antibody, human IgG1, kappa)
heavy: not shown
chain: B1 chain
light: B1 light with S28P, P29L, W61R
notes: single-arm (one Fab)
B13: H0610-G1dh/none-Hi-Kn010G3/L0222-k0 (antibody, human IgG1, kappa)
heavy: not shown
chain: B1 chain
light: B1 light with L38I, H39Q, W61S
notes: single-arm (one Fab)
B14: H0610-G1dh/none-Hi-Kn010G3/L0223-k0 (antibody, human IgG1, kappa)
heavy: not shown
chain: B1 chain
light: B1 light with L38I, F60L, W61S
notes: single-arm (one Fab)
B15: H0610-G1dh/none-Hi-Kn010G3/L0224-k0 (antibody, human IgG1, kappa)
heavy: not shown
chain: B1 chain
light: B1 light with L38I, W61P
notes: single-arm (one Fab)
B16: H0610-G1dh/none-Hi-Kn010G3/L0226-k0 (antibody, human IgG1, kappa)
heavy: not shown
chain: B1 chain
light: B1 light with L38I, W61S, Y94I
notes: single-arm (one Fab)
B17: H0610-G1dh/none-Hi-Kn010G3/L0227-k0 (antibody, human IgG1, kappa)
heavy: not shown
chain: B1 chain
light: B1 light with L38I, W61S, Y94L
notes: single-arm (one Fab)
B18: H0610-G1dh/none-Hi-Kn010G3/L0228-k0 (antibody, human IgG1, kappa)
heavy: not shown
chain: B1 chain
light: B1 light with L38I, W61S, Y94V
notes: single-arm (one Fab)
B19: H0610-G1dh/none-Hi-Kn010G3/L0229-k0 (antibody, human IgG1, kappa)
heavy: not shown
chain: B1 chain
light: B1 light with L38I, W61S, G96S
notes: single-arm (one Fab)
B20: H0610-G1dh/none-Hi-Kn010G3/L0230-k0 (antibody, human IgG1, kappa)
heavy: not shown
chain: B1 chain
light: B1 light with L38I, W61S, G96T
notes: single-arm (one Fab)
B21: H0610-G1dh/none-Hi-Kn010G3/L0231-k0 (antibody, human IgG1, kappa)
heavy: not shown
chain: B1 chain
light: B1 light with L38I, W61S, V99W
notes: single-arm (one Fab)
B22: H0610-G1dh/none-Hi-Kn010G3/L0233-k0 (antibody, human IgG1, kappa)
heavy: not shown
chain: B1 chain
light: B1 light with S28E, P29L, W61S, Y94G
notes: single-arm (one Fab)
B23: H0610-G1dh/none-Hi-Kn010G3/L0234-k0 (antibody, human IgG1, kappa)
heavy: not shown
chain: B1 chain
light: B1 light with S28E, W61R, Y94G
notes: single-arm (one Fab)
B24: H0610-G1dh/none-Hi-Kn010G3/L0237-k0 (antibody, human IgG1, kappa)
heavy: not shown
chain: B1 chain
light: B1 light with S28E, L38I, W61S
notes: single-arm (one Fab)
B25: H0610-G1dh/none-Hi-Kn010G3/L0238-k0 (antibody, human IgG1, kappa)
heavy: not shown
chain: B1 chain
light: B1 light with Q27E, S28P, W61S
notes: single-arm (one Fab)
B26: H0610-G1dh/none-Hi-Kn010G3/L0239-k0 (antibody, human IgG1, kappa)
heavy: not shown
chain: B1 chain
light: B1 light with Q27E, W61R, Y94G
notes: single-arm (one Fab)
B27: H0610-G1dh/none-Hi-Kn010G3/L0240-k0 (antibody, human IgG1, kappa)
heavy: not shown
chain: B1 chain
light: B1 light with Q27E, W61S
notes: single-arm (one Fab)
B28: H0610-G1dh/none-Hi-Kn010G3/L0242-k0 (antibody, human IgG1, kappa)
heavy: not shown
chain: B1 chain
light: B1 light with Q27E, L38I, W61S
notes: single-arm (one Fab)
B29: H0610-G1dh/none-Hi-Kn010G3/L0243-k0 (antibody, human IgG1, kappa)
heavy: not shown
chain: B1 chain
light: B1 light with Q27E, S28P, W61R, Y94G
notes: single-arm (one Fab)
B30: H0610-G1dh/none-Hi-Kn010G3/L0246-k0 (antibody, human IgG1, kappa)
heavy: not shown
chain: B1 chain
light: B1 light with L38I, H39Q, W61S, Y94S
notes: single-arm (one Fab)
B31: H0610-G1dh/none-Hi-Kn010G3/L0248-k0 (antibody, human IgG1, kappa)
heavy: not shown
chain: B1 chain
light: B1 light with S25P, L38I, H39Q, W61S
notes: single-arm (one Fab)
B32: H0610-G1dh/none-Hi-Kn010G3/L0249-k0 (antibody, human IgG1, kappa)
heavy: not shown
chain: B1 chain
light: B1 light with S25P, L38I, H39Q, W61S, Y94S
notes: single-arm (one Fab)
B33: H0610-G1dh/none-Hi-Kn010G3/L0258-k0 (antibody, human IgG1, kappa)
heavy: not shown
chain: B1 chain
light: B1 light with S28P, W61S, Y94T
notes: single-arm (one Fab)

Target: T1, soluble human GPC3 (human, UniProt P51654 25-563, limits assumed)
T1 construct: soluble human GPC3 as analyte; also called glypican 3
Assay: SPR (Biacore), soluble human GPC3

T1 sequence (P51654 other isoform, or with tags, fused parts or gaps limits assumed, form in doubt): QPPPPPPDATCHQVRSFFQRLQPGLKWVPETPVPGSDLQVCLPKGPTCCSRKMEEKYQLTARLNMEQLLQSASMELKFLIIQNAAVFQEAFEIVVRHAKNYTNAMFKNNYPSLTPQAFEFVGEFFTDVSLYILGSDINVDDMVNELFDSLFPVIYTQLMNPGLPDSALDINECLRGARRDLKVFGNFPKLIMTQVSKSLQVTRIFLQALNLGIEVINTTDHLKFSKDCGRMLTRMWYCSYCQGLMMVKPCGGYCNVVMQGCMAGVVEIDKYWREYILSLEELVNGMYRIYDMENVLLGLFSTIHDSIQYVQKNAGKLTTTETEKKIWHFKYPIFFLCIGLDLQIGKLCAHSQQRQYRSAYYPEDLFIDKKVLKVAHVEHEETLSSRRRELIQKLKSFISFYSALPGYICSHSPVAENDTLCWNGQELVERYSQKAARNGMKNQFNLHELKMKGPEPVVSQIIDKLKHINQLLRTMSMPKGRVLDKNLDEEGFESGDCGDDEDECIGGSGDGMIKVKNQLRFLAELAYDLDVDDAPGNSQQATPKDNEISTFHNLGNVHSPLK

Binder	Kd [nM]
B1	0.53
B2	1.12
B3	0.647
B4	0.994
B5	1.25
B6	0.657
B7	1.64
B8	1.86
B9	1.79
B10	1.99
B11	2.28
B12	1.36
B13	0.00014
B14	0.475
B15	0.243
B16	0.093
B17	0.408

Binder	Kd [nM]
B18	0.202
B19	1.2
B20	4
B21	0.589
B22	3.55
B23	0.778
B24	1.31
B25	0.637
B26	0.874
B27	0.848
B28	1.19
B29	0.649
B30	0.00121
B31	0.0555
B32	0.00686
B33	0.000352
